# Laboratory results from the supplement of paper PMC7125110.
# ± gives the standard error. For part of these data: Fewer inactive variants are shown than the library holds.
# B1: glmS ribozyme (parent)
# chain: AUAAAAGCGCCAGAACUACAGAAAUGUAGUUGACGAGGAGGAGGUUUAUCGAAUUUUCGGCGGAUGCCUCCAAA
# Experiments:
# Conditions in all cases: with glucosamine-6-phosphate
# glucosamine-6-phosphate [1] = variants of: B1; assay: kcat; higher = faster cleavage; RNA array
# Method in brief: (§1)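 A hybridised Cy3 probe tracked barcoded ribozyme variants, transcribed in situ by E. coli RNA polymerase on sequenced MiSeq chips, at 37 °C. The variants received 40 μM to 10 mM glucosamine-6-phosphate in HEPES/KCl/Mg(OAc)2 buffer. kobs came from decay fits and kcat and KM from weighted Michaelis–Menten fits.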
# glucosamine-6-phosphate [2] = variants of: B1; assay: self-cleavage kobs at 640 uM GlcN6P; higher = faster cleavage; RNA array
# Method in brief: as §1
# glucosamine-6-phosphate [3] = variants of: B1; assay: self-cleavage kobs at 10000 uM GlcN6P; higher = faster cleavage; RNA array
# Method in brief: as §1
# glucosamine-6-phosphate [4] = variants of: B1; assay: self-cleavage kobs at 2500 uM GlcN6P; higher = faster cleavage; RNA array
# Method in brief: as §1
# glucosamine-6-phosphate [5] = variants of: B1; assay: KM; higher = weaker cofactor use; RNA array
# Method in brief: as §1
# glucosamine-6-phosphate [6] = variants of: B1; assay: self-cleavage kobs at 40 uM GlcN6P; higher = faster cleavage; RNA array
# Method in brief: as §1
# glucosamine-6-phosphate [7] = variants of: B1; assay: self-cleavage kobs at 160 uM GlcN6P; higher = faster cleavage; RNA array
# Method in brief: as §1
Variant,kcat (glucosamine-6-phosphate [1]) [s⁻¹],self-cleavage kobs at 640 uM GlcN6P (glucosamine-6-phosphate [2]) [s⁻¹],self-cleavage kobs at 10000 uM GlcN6P (glucosamine-6-phosphate [3]) [s⁻¹],self-cleavage kobs at 2500 uM GlcN6P (glucosamine-6-phosphate [4]) [s⁻¹],KM (glucosamine-6-phosphate [5]) [µM],self-cleavage kobs at 40 uM GlcN6P (glucosamine-6-phosphate [6]) [s⁻¹],self-cleavage kobs at 160 uM GlcN6P (glucosamine-6-phosphate [7]) [s⁻¹]
C16U G32U U69A,9.39e-05 ± 2e-05,9.19e-05 ± 1.8e-05,0.000104 ± 1.9e-05,,,,
C16U A42U A64G,0.000175 ± 4.3e-05,,0.000122 ± 2.6e-05,7.15e-05 ± 1.6e-05,,,
A15U G66C,0.000125 ± 1.5e-05,,6.96e-05 ± 1.2e-05,3.02e-05 ± 1.1e-05,7900 ± 1900,,
C16G U57G,2.25e-05 ± 2.8e-06,,,,,< 1e-05,
A15U C58A,0.000154 ± 5.6e-06,,0.000113 ± 1e-05,6.38e-05 ± 1.2e-05,3640 ± 360,,
A15U C58U,8.55e-05 ± 9.3e-06,,6.48e-05 ± 8.4e-06,3.46e-05 ± 8.3e-06,3320 ± 980,,
C16U G63A,< 1e-05,,< 1e-05,< 1e-05,,< 1e-05,
C16U G29A G66A,0.00966 ± 0.0019,0.00534 ± 0.001,0.0139 ± 0.0063,0.00654 ± 0.0021,597 ± 190,0.000592 ± 0.00015,
C16A U65G,0.000487 ± 7.9e-05,8.78e-05 ± 1.8e-05,0.000382 ± 5.9e-05,0.000156 ± 5.5e-05,3310 ± 1000,,
C16U A39G,0.0255 ± 0.0088,0.00828 ± 0.0019,0.0356 ± 0.0085,0.0177 ± 0.0063,866 ± 400,0.00133 ± 0.00019,0.00365 ± 0.00075
C16U U46C,0.0025 ± 0.00034,0.000646 ± 0.00017,0.00208 ± 0.00033,0.00192 ± 0.00029,1320 ± 290,7.03e-05 ± 1.7e-05,0.000295 ± 4.9e-05
C16G A39C U54G,0.00043 ± 5.6e-05,0.000133 ± 2.1e-05,0.000394 ± 6e-05,0.000227 ± 5.8e-05,1500 ± 410,,
C16G G41C,2.59e-05 ± 7.1e-06,,,,,< 1e-05,< 1e-05
C16G G41A,9.56e-05 ± 1.7e-05,,7.96e-05 ± 1.2e-05,7.9e-05 ± 1.8e-05,,,< 1e-05
C16G U56G,0.00338 ± 0.00054,0.000953 ± 0.00023,0.00348 ± 0.00064,0.00213 ± 0.00038,1220 ± 320,0.000129 ± 2.5e-05,0.000387 ± 9.6e-05
A15U U49A C67A,2.42e-05 ± 8.1e-06,,,,,,
C16U G32U,0.0024 ± 0.00062,0.000214 ± 3.2e-05,0.00137 ± 0.00015,0.000519 ± 5.8e-05,8100 ± 2900,,4.18e-05 ± 1e-05
